Measured values: article PMC8339232

Target: PknF catalytic domain (cPknF) catalytic domain, 1-299 (UniProt P9WI75)
Settings: reference: non-phosphorylated cPknF; sites T173,T175

Substance: PknF catalytic domain (cPknF) catalytic domain, 1-299 (from UniProt P9WI75)
- other: volume fraction of dimers: stronger; reference 44
